Source: patent US20150110781A1

Key:
Experiment in all cases: cell-based or functional assay
[1] = molecular target: Street rabies virus Dog, SC-CD09, Sichuan (rabies virus)
[2] = molecular target: Street rabies virus Dog, GN07, Guangdong (rabies virus)
[3] = molecular target: Street rabies virus Deer, DRV, Jilin (rabies virus)
[4] = molecular target: Street rabies virus Dog, ZJ-HZ09, Zhejiang (rabies virus)
[5] = molecular target: Street rabies virus Human, HN35, Hunan (rabies virus)
[6] = molecular target: Street rabies virus Ferret Badger, JX08-45, Jiangxi (rabies virus)
[7] = molecular target: Street rabies virus Ferret Badger, JX09-27, Jiangxi (rabies virus)
[8] = molecular target: Street rabies virus Ferret Badger, ZJ-LA, Zhejiang (rabies virus)
[9] = molecular target: Street rabies virus Human, YN1, Yunnan (rabies virus)
[10] = molecular target: CVS-11 rabies virus (rabies virus) (UniProt O92284)
[11] = molecular target: Street rabies virus Dog, BD06, Hebei (rabies virus)

UniProt O92284, sequence (O92284 20-524): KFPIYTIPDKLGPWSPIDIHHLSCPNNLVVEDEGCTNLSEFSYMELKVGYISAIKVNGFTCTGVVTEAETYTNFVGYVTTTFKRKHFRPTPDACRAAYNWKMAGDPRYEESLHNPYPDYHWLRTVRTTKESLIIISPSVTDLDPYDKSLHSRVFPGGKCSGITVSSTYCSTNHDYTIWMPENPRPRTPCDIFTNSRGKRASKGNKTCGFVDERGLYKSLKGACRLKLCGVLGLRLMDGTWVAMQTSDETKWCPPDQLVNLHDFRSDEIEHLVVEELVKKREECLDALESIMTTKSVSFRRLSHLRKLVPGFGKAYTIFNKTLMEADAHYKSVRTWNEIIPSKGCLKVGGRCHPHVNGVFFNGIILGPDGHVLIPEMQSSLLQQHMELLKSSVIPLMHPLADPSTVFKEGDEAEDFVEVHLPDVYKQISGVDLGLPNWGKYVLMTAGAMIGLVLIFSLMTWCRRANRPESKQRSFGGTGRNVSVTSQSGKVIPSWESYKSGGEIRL

Binder | mouse neutralization test (MNT): survivors of 8 mice at day 20 (of 8 surviving) [1] | mouse neutralization test (MNT): survivors of 8 mice at day 20 (of 8 surviving) [2] | mouse neutralization test (MNT): survivors of 8 mice at day 20 (of 8 surviving) [3] | mouse neutralization test (MNT): survivors of 8 mice at day 20 (of 8 surviving) [4] | mouse neutralization test (MNT): survivors of 8 mice at day 20 (of 8 surviving) [5] | mouse neutralization test (MNT): survivors of 8 mice at day 20 (of 8 surviving) [6] | mouse neutralization test (MNT): survivors of 8 mice at day 20 (of 8 surviving) [7] | mouse neutralization test (MNT): survivors of 8 mice at day 20 (of 8 surviving) [8] | mouse neutralization test (MNT): survivors of 8 mice at day 20 (of 8 surviving) [9] | Neutralization potency (IU/mg), FAVN [10] [IU/mg] | Neutralization potency (IU/mg), RFFIT [10] [IU/mg] | Neutralizing Potency (IU/mg), RFFIT [10] [IU/mg] | mouse neutralization test (MNT): survival rate at 0.004 mg/mL antibody [10] [%] | mouse neutralization test (MNT): survivors of 8 mice at day 20 (of 8 surviving) [11]
Mouse CT.RV 3D11E3 1A9 (antibody, V domains shown) VH: EIQLQQTGPELVKPGASVKISCKASGYSFTDYIMLWVKQSHGKSLEWIGDIYPYYGSTSYNLKFKGKATLTVDKSSSTAYMQLNSLTSEDSAVYYCARQGGDGNYVLFDYWGQGTTLTVSS VL: DIVMTQSQKFMSTSVGDRVSVTCKASQNVGTTVAWYQQKPGQSPKALIYSASYRYSGVPDRFTGSGSGTDFTLTISNVQSEDLAEYFCQQYNSYPFTFGSGTKLEIK | 8 | 7 | 7 | 6 | 8 | 8 | 8 | 7 | 7 | 308 | 1260 | 3680 | 50 | 4
Hu1A9-1 (antibody, V domains shown) VH: QVQLVQSGAEVKKPGASVKVSCKASGYSFTDYIMLWVRQAPGQRLEWIGDIYPYYGSTSYNLKFKGKATLTVDTSASTAYMELSSLRSEDTAVYYCARQGGDGNYVLFDYWGQGTLVTVSS VL: DIQMTQSPSSLSASVGDRVTITCKASQNVGTTVAWYQQKPGKAPKALIYSASYRYSGVPSRFSGSGSGTDFTLTISSLQPEDFATYYCQQYNSYPFTFGQGTKLEIKR | – | – | – | – | – | – | – | – | – | 2100 | 2290 | – | 100 | –
Hu1A9-2 (antibody, V domains shown) VH: QVQLVQSGAEVKKPGASVKVSCKASGYSFTDYIMLWVRQAPGQRLEWIGDIYPYYGSTSYNLKFKGKATLTVDTSASTAYMELSSLRSEDTAVYYCARQGGDGNYVLFDYWGQGTLVTVSS VL: DIQMTQSPSSLSASVGDRVTITCKASQNVGTTVAWYQQKPGKAPKVLIYSASYRYSGVPSRFSGSGSGTDFTLTISSLQPEDFATYYCQQYNSYPFTFGQGTKLEIKR | – | – | – | – | – | – | – | – | – | 405 | 1310 | – | – | –
Mouse CT.RV 7G11A3 2G11 (antibody, V domains shown) VH: EVQLVESGGGLVKPGGSLILSCAASGFTFSGFAMSWVRQTPEKRLEWVATISSGGTYTYSPDSVMGRFTISRDNAKNTLYLQMSSLRSEDTAMYYCARRLRRNYYSMDYWGQGTSVTVSS VL: DVVLTQAPLSLPVNIGDQASISCKSTKSLLNSDGFTYLDWYLQKPGQSPQLLIYLVSNRFSGVPDRFSGSGSGTDFTLKISRVEAEDLGIYFCFQSNYLPFTFGSGTKLEIK | 8 | 7 | 8 | 7 | 8 | 8 | 8 | 8 | 7 | 8310 | 1670 | 701 | – | 6
